Reference: patent US20080227720A1 (MOREHOUSE SCHOOL OF MEDICINE, published 2008)

Molecular target: CXCR4 receptor (human, UniProt P61073 1-352)
Assay: cell-based or functional assay

CXCR4 receptor, sequence (P61073 whole entry): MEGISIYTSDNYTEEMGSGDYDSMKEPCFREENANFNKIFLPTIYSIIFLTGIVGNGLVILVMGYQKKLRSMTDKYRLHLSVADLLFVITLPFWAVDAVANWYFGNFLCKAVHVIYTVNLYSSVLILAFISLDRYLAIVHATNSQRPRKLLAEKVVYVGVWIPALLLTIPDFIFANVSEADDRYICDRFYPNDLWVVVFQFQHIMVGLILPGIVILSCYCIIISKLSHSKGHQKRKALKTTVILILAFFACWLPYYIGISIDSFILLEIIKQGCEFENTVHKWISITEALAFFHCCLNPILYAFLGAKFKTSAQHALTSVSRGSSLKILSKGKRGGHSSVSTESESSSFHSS

Binder | apoptosis relative to the full Nef protein at an equivalent molar ratio | apoptosis relative to the full gp 120 protein at an equivalent molar ratio
NAACAWLEAQ [Nef 10 mer peptide spanning the 50-60 motif (NAACAWLEAQ)] | ~100 % of the apoptosis observed for the full Nef protein | 
GRAFYTTKY [Gp120 9 mer peptide spanning amino acids 315-324 (GRAFYTTKY)] |  | ~60 % of the apoptosis observed from the full gp 120 protein
